Like-named read-outs stand apart in the source and are kept apart here.
How the values were obtained:
[1] = biological target: T1, human CD3 on T-cell lines (CD3-expressing Jurkat cells; HUT78 cells) (human, UniProt P07766 23-207); assay: flow cytometry, HUT78 cells
T1 construct: On cells it stands in the CD3/TCR complex

[2] = biological target: T2, human CD3 epsilon (Acro Cat #CDE-H5223) (human, UniProt P07766 23-126); assay: SPR (Biacore), antibody captured, human CD3 epsilon analyte
T2 construct: Bought recombinant protein; also called rhCD3E
Procedure: (§1) Anti-Fab or anti-Fc polyclonal antibodies were immobilized onto a CM5 chip (GE Life Sciences) using amine coupling chemistry (from Amine Coupling Kit, GE Life Sciences). The immobilization steps were carried out at a flow rate of 25 μl/min in 1×HBS-EP+ buffer (GE Life Sciences; 10× Stock diluted before use). The sensor surfaces were activated for 7 min with a mixture of NHS (0.05 M) and EDC (0.2 M). The Anti-Fab or Anti-Fc antibodies were injected over all 4 flow cells at a concentration of 25 μg/mL in 10 mM sodium acetate, pH 4.5, for 7 min. Ethanolamine (1 M, pH 8.5) was injected for 7 min to block any remaining activated groups.
(§2) Off-rate and kinetic binding experiments were performed at 25° C. using 1×HBS-EP+ buffer. Test and control antibodies were injected over the anti-Fab or anti-Fc surface at concentrations of 5-10 μg/mL for 12 seconds at a flow rate of 10 μL/min on flow cells 2, 3 and 4, followed by a buffer wash for 30 seconds at the same flow rate. […] After capturing ligand (antibody) on the anti-Fc or anti-Fab surface, the analyte (human CD3 epsilon, Acro Cat #CDE-H5223) was bound for 180 seconds, followed by a 600 second dissociation phase at a flow rate of 50 μL/min. Between each ligand capture and analyte binding cycle, regeneration was carried out using two injections of 10 mM Glycine pH 2.0 for 30 seconds at 30 μL/min, followed by a 30 second buffer wash step.
(§3) The data was fit with the Biacore T200 Evaluation software, using a 1-1 Langmuir binding model. KD (affinity, nM) was determined as a ratio of the kinetic rate constants calculated from the fits of the association and dissociation phases.

[3] = biological target: T2, human CD3 epsilon (Acro Cat #CDE-H5223); assay: as above; remark: listed apart in the source
Procedure: as §1, §2, §3

T1 sequence (P07766 23-207 limits assumed): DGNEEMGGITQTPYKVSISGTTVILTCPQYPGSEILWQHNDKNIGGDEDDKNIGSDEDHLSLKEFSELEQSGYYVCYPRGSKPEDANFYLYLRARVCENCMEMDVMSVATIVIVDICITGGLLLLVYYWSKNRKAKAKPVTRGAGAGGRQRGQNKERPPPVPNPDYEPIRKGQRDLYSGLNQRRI
T2 sequence (P07766 23-126 limits assumed): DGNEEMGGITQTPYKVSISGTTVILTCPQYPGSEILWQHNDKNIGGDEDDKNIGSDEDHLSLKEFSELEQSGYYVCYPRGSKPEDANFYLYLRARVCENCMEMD

Row | Bmax (MFI) [1] [MFI] | Kd [1] [nM] | Kd [2] [nM] | koff [2] [s⁻¹] | kon [2] [M⁻¹ s⁻¹] | Kd [3] [nM] | koff [3] [s⁻¹] | kon [3] [M⁻¹ s⁻¹] | Binder
1 | 742 | 0.07 | 0.476 | 0.000251 | 527000 |  |  |  | 2037-B10_Hc-A59D (antibody, human IgG1, lambda, V domains shown, human IgG1, lambda; also called SRP 2037 A59D; 2037-B10_VH-A59D) VH: EVQLVESGGGLVKPGGSLRLSCAASGFTFNKYAMNWVRQAPGKGLEWVARIRTKYNNYDTYYADSVKDRFTISRDDSKNTAYLQMNSLKTEDTAVYYCVRHGNFGNSYISYWAYWGQGTPVTVSS VL: QTVVTQEPSLTVSPGGTVTLTCGSSTGAVTSGYYPNWLQQKPGQAPRGLIGGTKFLAPGTPARFSGSLLGGKAALTLSGVQPEDEAEYYCALWYSNRWVFGGGTQLTVTG
2 | 1360 | 1.27 | 1.07 | 0.000278 | 259000 |  |  |  | 2037-B10_Hc-F27D (antibody, human IgG1, lambda, V domains shown, human IgG1, lambda; also called SRP 2037 F27D; 2037-B10_VH-F27D) VH: EVQLVESGGGLVKPGGSLRLSCAASGDTFNKYAMNWVRQAPGKGLEWVARIRTKYNNYATYYADSVKDRFTISRDDSKNTAYLQMNSLKTEDTAVYYCVRHGNFGNSYISYWAYWGQGTPVTVSS VL: QTVVTQEPSLTVSPGGTVTLTCGSSTGAVTSGYYPNWLQQKPGQAPRGLIGGTKFLAPGTPARFSGSLLGGKAALTLSGVQPEDEAEYYCALWYSNRWVFGGGTQLTVTG
3 | 1010 | 0.36 | 0.767 | 0.000207 | 270000 |  |  |  | 2037-B10_Hc-G105D (antibody, human IgG1, lambda, V domains shown, human IgG1, lambda; also called SRP 2037 G105D; 2037-B10_VH-G105D) VH: EVQLVESGGGLVKPGGSLRLSCAASGFTFNKYAMNWVRQAPGKGLEWVARIRTKYNNYATYYADSVKDRFTISRDDSKNTAYLQMNSLKTEDTAVYYCVRHGNFDNSYISYWAYWGQGTPVTVSS VL: QTVVTQEPSLTVSPGGTVTLTCGSSTGAVTSGYYPNWLQQKPGQAPRGLIGGTKFLAPGTPARFSGSLLGGKAALTLSGVQPEDEAEYYCALWYSNRWVFGGGTQLTVTG
4 | 1060 | 0.94 | 1.39 | 0.000377 | 271000 |  |  |  | 2037-B10_Hc-K31D (antibody, human IgG1, lambda, V domains shown, human IgG1, lambda; also called SRP 2037 K31D; 2037-B10_VH-K31D) VH: EVQLVESGGGLVKPGGSLRLSCAASGFTFNDYAMNWVRQAPGKGLEWVARIRTKYNNYATYYADSVKDRFTISRDDSKNTAYLQMNSLKTEDTAVYYCVRHGNFGNSYISYWAYWGQGTPVTVSS VL: QTVVTQEPSLTVSPGGTVTLTCGSSTGAVTSGYYPNWLQQKPGQAPRGLIGGTKFLAPGTPARFSGSLLGGKAALTLSGVQPEDEAEYYCALWYSNRWVFGGGTQLTVTG
5 | 857 | 0.37 | 0.856 | 0.000289 | 337000 |  |  |  | 2037-B10_Hc-K54D (antibody, human IgG1, lambda, V domains shown, human IgG1, lambda; also called SRP 2037 K54D; 2037-B10_VH-K54D) VH: EVQLVESGGGLVKPGGSLRLSCAASGFTFNKYAMNWVRQAPGKGLEWVARIRTDYNNYATYYADSVKDRFTISRDDSKNTAYLQMNSLKTEDTAVYYCVRHGNFGNSYISYWAYWGQGTPVTVSS VL: QTVVTQEPSLTVSPGGTVTLTCGSSTGAVTSGYYPNWLQQKPGQAPRGLIGGTKFLAPGTPARFSGSLLGGKAALTLSGVQPEDEAEYYCALWYSNRWVFGGGTQLTVTG
6 | 989 | 0.22 | 0.36 | 0.000189 | 524000 |  |  |  | 2037-B10_Hc-N30D (antibody, human IgG1, lambda, V domains shown, human IgG1, lambda; also called SRP 2037 N30D; 2037-B10_VH-N30D) VH: EVQLVESGGGLVKPGGSLRLSCAASGFTFDKYAMNWVRQAPGKGLEWVARIRTKYNNYATYYADSVKDRFTISRDDSKNTAYLQMNSLKTEDTAVYYCVRHGNFGNSYISYWAYWGQGTPVTVSS VL: QTVVTQEPSLTVSPGGTVTLTCGSSTGAVTSGYYPNWLQQKPGQAPRGLIGGTKFLAPGTPARFSGSLLGGKAALTLSGVQPEDEAEYYCALWYSNRWVFGGGTQLTVTG
7 | 216 | 27.4 | 5.37 | 0.000668 | 124000 |  |  |  | 2037-B10_Hc-N56D (antibody, human IgG1, lambda, V domains shown, human IgG1, lambda; also called SRP 2037 N56D; 2037-B10_VH-N56D) VH: EVQLVESGGGLVKPGGSLRLSCAASGFTFNKYAMNWVRQAPGKGLEWVARIRTKYDNYATYYADSVKDRFTISRDDSKNTAYLQMNSLKTEDTAVYYCVRHGNFGNSYISYWAYWGQGTPVTVSS VL: QTVVTQEPSLTVSPGGTVTLTCGSSTGAVTSGYYPNWLQQKPGQAPRGLIGGTKFLAPGTPARFSGSLLGGKAALTLSGVQPEDEAEYYCALWYSNRWVFGGGTQLTVTG
8 | 166 | 28.6 | 85 | 0.000583 | 6860 |  |  |  | 2037-B10_Hc-N103D (antibody, human IgG1, lambda, V domains shown, human IgG1, lambda; also called SRP 2037 N103D; 2037-B10_VH-N103D) VH: EVQLVESGGGLVKPGGSLRLSCAASGFTFNKYAMNWVRQAPGKGLEWVARIRTKYNNYATYYADSVKDRFTISRDDSKNTAYLQMNSLKTEDTAVYYCVRHGDFGNSYISYWAYWGQGTPVTVSS VL: QTVVTQEPSLTVSPGGTVTLTCGSSTGAVTSGYYPNWLQQKPGQAPRGLIGGTKFLAPGTPARFSGSLLGGKAALTLSGVQPEDEAEYYCALWYSNRWVFGGGTQLTVTG
9 |  |  |  |  |  | 185 | 0.000761 | 4110 | SRP 2037-B10 F29D/R97D (antibody, human IgG1, lambda, V domains shown, human IgG1, lambda) VH: EVQLVESGGGLVKPGGSLRLSCAASGFTDNKYAMNWVRQAPGKGLEWVARIRTKYNNYATYYADSVKDRFTISRDDSKNTAYLQMNSLKTEDTAVYYCVRHGNFGNSYISYWAYWGQGTPVTVSS VL: QTVVTQEPSLTVSPGGTVTLTCGSSTGAVTSGYYPNWLQQKPGQAPRGLIGGTKFLAPGTPARFSGSLLGGKAALTLSGVQPEDEAEYYCALWYSNDWVFGGGTQLTVTG
10 | 103 | 8.57 |  |  |  |  |  |  | 2037-B10_Hc-A33D (antibody, human IgG1, V domains shown, human IgG1, lambda; also called SRP 2037 A33D; 2037-B10_VH-A33D) VH: EVQLVESGGGLVKPGGSLRLSCAASGFTFNKYDMNWVRQAPGKGLEWVARIRTKYNNYATYYADSVKDRFTISRDDSKNTAYLQMNSLKTEDTAVYYCVRHGNFGNSYISYWAYWGQGTPVTVSS VL: QTVVTQEPSLTVSPGGTVTLTCGSSTGAVTSGYYPNWLQQKPGQAPRGLIGGTKFLAPGTPARFSGSLLGGKAALTLSGVQPEDEAEYYCALWYSNRWVFGGGTQLTVTG
11 | 119 | 6.61 |  |  |  |  |  |  | 2037-B10_Hc-R50D (antibody, human IgG1, lambda, V domains shown, human IgG1, lambda; also called SRP 2037 R50D; 2037-B10_VH-R50D) VH: EVQLVESGGGLVKPGGSLRLSCAASGFTFNKYAMNWVRQAPGKGLEWVADIRTKYNNYATYYADSVKDRFTISRDDSKNTAYLQMNSLKTEDTAVYYCVRHGNFGNSYISYWAYWGQGTPVTVSS VL: QTVVTQEPSLTVSPGGTVTLTCGSSTGAVTSGYYPNWLQQKPGQAPRGLIGGTKFLAPGTPARFSGSLLGGKAALTLSGVQPEDEAEYYCALWYSNRWVFGGGTQLTVTG
12 | 142 | 14.1 |  |  |  |  |  |  | 2037-B10_Hc-R52D (antibody, human IgG1, lambda, V domains shown, human IgG1, lambda; also called SRP 2037 R52D; 2037-B10_VH-R52D) VH: EVQLVESGGGLVKPGGSLRLSCAASGFTFNKYAMNWVRQAPGKGLEWVARIDTKYNNYATYYADSVKDRFTISRDDSKNTAYLQMNSLKTEDTAVYYCVRHGNFGNSYISYWAYWGQGTPVTVSS VL: QTVVTQEPSLTVSPGGTVTLTCGSSTGAVTSGYYPNWLQQKPGQAPRGLIGGTKFLAPGTPARFSGSLLGGKAALTLSGVQPEDEAEYYCALWYSNRWVFGGGTQLTVTG
13 | 896 | 0.29 |  |  |  |  |  |  | 2037-B10_Lc-S95D (antibody, V domains shown, human IgG1, lambda; also called SRP 2037 S95D; 2037-B10 VL-S95D) VH: not shown VL: QTVVTQEPSLTVSPGGTVTLTCGSSTGAVTSGYYPNWLQQKPGQAPRGLIGGTKFLAPGTPARFSGSLLGGKAALTLSGVQPEDEAEYYCALWYDNRWVFGGGTQLTVTG
14 | 1600 | 0.7 |  |  |  |  |  |  | 2037-B10_Lc-Y94D (antibody, V domains shown, human IgG1, lambda; also called SRP 2037 Y94D; 2037-B10 VL-Y94D) VH: not shown VL: QTVVTQEPSLTVSPGGTVTLTCGSSTGAVTSGYYPNWLQQKPGQAPRGLIGGTKFLAPGTPARFSGSLLGGKAALTLSGVQPEDEAEYYCALWDSNRWVFGGGTQLTVTG
